Data set [1] concerns the target T1, Lamin A/C IgF domain (411-566) (human, UniProt P02545 411-566).
T1 construct: Lamin A/C, human, residues 411-566 (IgF domain); MBP cut on-column with TEV protease; also called Lamin A/C (411-566); Ig-fold domain of Lamin A/C; source: E. coli Rosetta 2 (DE3), purified (amylose resin, Superdex 75); not shown: MBP, N-terminal, cleaved
T1 sequence (looked up): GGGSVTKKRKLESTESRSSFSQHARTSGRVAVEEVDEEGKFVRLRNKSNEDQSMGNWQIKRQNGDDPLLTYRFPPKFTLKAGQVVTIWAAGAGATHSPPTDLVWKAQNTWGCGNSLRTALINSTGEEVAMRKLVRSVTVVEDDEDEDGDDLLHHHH
Description: cryo-EM structure; BAF-Lamin A/C IgF-nucleosome complex, high gel mobility (fraction 1); BAF 3-fold, Lamin A/C IgF 6-fold over 0.93 uM nucleosome (193 bp DNA), 30 min 30 °C, GraFix with glutaraldehyde; 3.82 Å. The settings on record: both partners purified.

Data set [2] concerns the molecule itself. The data set is described as above.

This note sets out measurements from PMC11811190, “Cryo-EM structures of the BAF-Lamin A/C complex bound to nucleosomes” (Nature Communications, 2025).

B1: Barrier-to-autointegration factor (BAF) (natural protein, human, UniProt O75531 1-89, looked up)
chain: MTTSQKHRDFVAEPMGEKPVGSLAGIGEVLGKKLEERGFDKAYVVLGQFLVLKKDEDLFREWLKDTCGANAKQSRDCFGCLREWCDAFL
notes: Barrier-to-autointegration factor (BAF), human, full length; His tag cut with thrombin; also called human BAF; full-length BAF; not shown: His6, N-terminal, cleaved
B1: the binding result in data set [1] and in data set [2] was “binds” each time.
